These results are taken from patent publication US7052908B2, “Androgen receptor coactivators” (University of Rochester, priority 1998, dated 2006).

One test deals with T1, mARe708k (Homo sapiens, UniProt P10275, E710K).
T1 construct: expressed in transfected cells; host or cells: DU145
T1 sequence (P10275 1-920 E710K): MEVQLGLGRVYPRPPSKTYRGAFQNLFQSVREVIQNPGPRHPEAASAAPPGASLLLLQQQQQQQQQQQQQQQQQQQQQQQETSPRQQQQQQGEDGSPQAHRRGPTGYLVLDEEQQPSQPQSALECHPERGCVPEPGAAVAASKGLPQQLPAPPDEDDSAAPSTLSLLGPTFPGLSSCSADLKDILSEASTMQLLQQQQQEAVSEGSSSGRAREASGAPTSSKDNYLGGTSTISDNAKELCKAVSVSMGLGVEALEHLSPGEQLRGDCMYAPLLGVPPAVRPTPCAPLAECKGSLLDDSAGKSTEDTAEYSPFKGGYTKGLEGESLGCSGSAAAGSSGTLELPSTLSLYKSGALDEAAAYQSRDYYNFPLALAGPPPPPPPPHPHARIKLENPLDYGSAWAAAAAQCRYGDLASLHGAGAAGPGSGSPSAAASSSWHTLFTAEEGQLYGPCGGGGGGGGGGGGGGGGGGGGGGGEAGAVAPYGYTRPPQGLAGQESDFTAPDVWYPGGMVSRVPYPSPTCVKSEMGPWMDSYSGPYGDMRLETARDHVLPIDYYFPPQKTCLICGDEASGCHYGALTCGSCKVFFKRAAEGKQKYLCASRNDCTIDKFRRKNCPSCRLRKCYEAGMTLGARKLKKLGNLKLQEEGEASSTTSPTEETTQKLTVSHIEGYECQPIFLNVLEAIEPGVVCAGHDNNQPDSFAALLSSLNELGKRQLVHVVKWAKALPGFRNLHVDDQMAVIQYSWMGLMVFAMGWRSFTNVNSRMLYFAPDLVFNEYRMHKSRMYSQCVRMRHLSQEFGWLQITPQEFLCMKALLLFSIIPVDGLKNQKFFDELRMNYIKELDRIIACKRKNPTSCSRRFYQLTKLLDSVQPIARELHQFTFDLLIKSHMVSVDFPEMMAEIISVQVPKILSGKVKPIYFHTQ
Description: AR transactivation, transient transfection CAT reporter assay, mutant AR. It counts as cell-based. The settings on record: mARe708k, DHT 10^-11 to 10^-8 M. On the technique in general: A reporter such as luciferase makes a cellular process visible.

Test [1] has as its target T2, progesterone receptor (PR) (Homo sapiens, UniProt P06401).
T2 construct: expressed in transfected cells; host or cells: DU145
T2 sequence (P06401 1-933): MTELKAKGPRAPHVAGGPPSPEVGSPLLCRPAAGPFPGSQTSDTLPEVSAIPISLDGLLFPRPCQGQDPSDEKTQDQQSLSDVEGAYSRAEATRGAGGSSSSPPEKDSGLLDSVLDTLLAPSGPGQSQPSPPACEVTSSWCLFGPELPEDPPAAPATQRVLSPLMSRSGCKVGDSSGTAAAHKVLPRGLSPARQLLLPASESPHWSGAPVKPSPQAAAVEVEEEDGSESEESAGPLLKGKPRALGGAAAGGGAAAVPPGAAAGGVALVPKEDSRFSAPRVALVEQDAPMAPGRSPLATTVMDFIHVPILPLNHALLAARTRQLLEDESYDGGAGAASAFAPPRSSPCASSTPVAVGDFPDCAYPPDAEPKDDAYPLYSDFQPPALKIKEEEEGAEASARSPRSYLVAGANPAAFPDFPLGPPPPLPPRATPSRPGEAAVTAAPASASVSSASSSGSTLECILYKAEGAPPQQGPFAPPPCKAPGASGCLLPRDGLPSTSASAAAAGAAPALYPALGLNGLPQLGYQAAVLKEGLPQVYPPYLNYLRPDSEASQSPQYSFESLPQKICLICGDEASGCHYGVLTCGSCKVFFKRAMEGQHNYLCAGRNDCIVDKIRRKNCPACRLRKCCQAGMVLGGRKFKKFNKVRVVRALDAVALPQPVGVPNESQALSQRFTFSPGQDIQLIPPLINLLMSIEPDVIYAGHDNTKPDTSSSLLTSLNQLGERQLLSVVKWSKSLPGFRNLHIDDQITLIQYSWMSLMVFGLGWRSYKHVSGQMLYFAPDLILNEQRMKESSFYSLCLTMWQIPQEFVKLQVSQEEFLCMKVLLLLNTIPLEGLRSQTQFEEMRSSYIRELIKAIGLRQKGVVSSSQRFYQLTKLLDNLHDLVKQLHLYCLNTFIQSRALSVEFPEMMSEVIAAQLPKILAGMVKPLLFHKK
Description: Steroid receptor transactivation, MMTV-CAT reporter in DU145 cells. It counts as cell-based. To be noted: DU145, relative to AR.

The target in a further test is T3, AR (Homo sapiens, UniProt P10275).
T3 sequence (P10275 1-920): T1 sequence (P10275 1-920 E710K) with K710E
The test can be described thus: AR transcriptional activity (MMTV-CAT) in PC3 cells.

Changes are numbered by the printed parent chain.

B1: ARA55: androgen receptor coactivator, 444 aa, SEQ ID NO:4, 91% homology with mouse hic5 (protein)
chain: MPRSGAPKERPAEPLTPPPSYGHQPTGQSGESSGASGDKDHLYSTVCKPRSPKPAAPAAPPFSSSSGVLGTGLCELDRLLQELNATQFNITDEIMSQFPSSKVASGEQKEDQSEDKKRPSLPSSPSPGLPKASATSATLELDRLMASLPDFRVQNHLPASGPTQPPVVSSTNEGSPSPPEPTAKGSLDTMLGLLQSDLSRRGVPTQAKGLCGSCNKPIAGQVVTALGRAWHPEHFVCGGCSTALGGSSFFEKDGAPFCPECYFERFSPRCGFCNQPIRHKMVTALGTHWHPEHFCCVSCGEPFGDEGFHEREGRPYCRRDFLQLFAPRCQGCQGPILDNYISALSLLWHPDCFVCRECFAPFSGGSFFEHEGRPLCENHFHARRGSLCPTCGLPVTGRCVSALGRRFHPDHFACTFCLRPLTKGSFQERAGKPYCQPCFLKLFG
modifications: Homo sapien
Turning to B1, the “enhancement of transactivation by ARA55” value with mARe708k is on record as 4–8 fold. Besides, the “enhancement of PR transcriptional activation by ARA55” value in test [1] was “to a lesser degree”. The “increase of AR transcriptional activity on transfection with exogenous ARA55” value with AR was 4 fold.
